From paper doi:10.1101/803361 come the findings set out here.

This assay has as its target Fluorescein-labelled Hsf1 peptide with the Hsc70 binding site in the TAD, residues 461-471 (human) (UniProt Q00613). The experiment in a line: fluorescence polarisation.

What is called Kd is the free concentration of one partner at which half of the binding sites on the other are occupied at equilibrium, for simple one-to-one binding. A low value points to tighter binding.

Chain of Fluorescein-labelled Hsf1 peptide with the Hsc70 binding site in the TAD, residues 461-471 (human) (Q00613 whole entry, looked up, the tested form may be a part): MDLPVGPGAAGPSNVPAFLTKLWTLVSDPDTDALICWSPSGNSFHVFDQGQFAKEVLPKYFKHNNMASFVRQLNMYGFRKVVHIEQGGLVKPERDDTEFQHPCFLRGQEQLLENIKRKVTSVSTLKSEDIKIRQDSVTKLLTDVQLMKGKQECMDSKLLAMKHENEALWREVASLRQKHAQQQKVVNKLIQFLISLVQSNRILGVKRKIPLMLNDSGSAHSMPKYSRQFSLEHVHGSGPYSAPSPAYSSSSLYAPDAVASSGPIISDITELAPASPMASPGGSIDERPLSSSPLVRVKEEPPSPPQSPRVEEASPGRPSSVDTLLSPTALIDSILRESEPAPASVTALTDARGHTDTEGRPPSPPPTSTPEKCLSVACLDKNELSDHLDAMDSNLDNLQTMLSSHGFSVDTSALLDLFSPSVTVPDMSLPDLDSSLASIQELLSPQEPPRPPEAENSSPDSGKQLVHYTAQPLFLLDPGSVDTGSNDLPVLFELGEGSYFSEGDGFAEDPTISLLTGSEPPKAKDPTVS
Chain of Human Hsc70 (HSPA8), wild type (P11142 whole entry): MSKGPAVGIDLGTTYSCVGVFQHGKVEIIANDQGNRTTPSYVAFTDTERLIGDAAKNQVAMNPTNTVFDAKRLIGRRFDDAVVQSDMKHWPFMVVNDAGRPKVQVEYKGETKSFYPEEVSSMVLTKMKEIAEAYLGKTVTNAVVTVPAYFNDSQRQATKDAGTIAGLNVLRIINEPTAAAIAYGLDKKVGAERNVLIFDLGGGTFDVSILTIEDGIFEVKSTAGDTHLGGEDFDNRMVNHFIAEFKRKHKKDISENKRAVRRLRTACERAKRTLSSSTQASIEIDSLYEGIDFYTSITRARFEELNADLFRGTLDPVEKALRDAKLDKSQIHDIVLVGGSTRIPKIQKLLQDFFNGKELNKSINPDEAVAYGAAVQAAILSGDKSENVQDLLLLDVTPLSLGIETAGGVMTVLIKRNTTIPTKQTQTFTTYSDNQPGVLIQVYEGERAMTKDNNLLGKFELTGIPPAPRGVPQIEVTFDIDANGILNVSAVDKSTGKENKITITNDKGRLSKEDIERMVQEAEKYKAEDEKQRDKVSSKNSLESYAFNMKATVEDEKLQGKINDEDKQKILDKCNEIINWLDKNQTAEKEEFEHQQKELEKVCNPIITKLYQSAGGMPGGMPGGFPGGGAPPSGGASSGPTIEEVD

Substance “Human Hsc70 (HSPA8), wild type (from UniProt P11142 1-646) (natural protein)” registered a Kd of 5 to 30 µM.
